This passage reports fold increase of binding with RanGTP against without and fold reduction of binding against full-length Tnp3 results from article PMC3161976.

For experiment [1], the target named is GST-Tnp3 (Transportin 3), full length (human) (UniProt Q9Y5L0). The experiment in a line: pull-down; GST-Tnp3, GST-Tnp3 DC825 or GST-Xpo-t held on glutathione-Sepharose 4B beads, with purified HIV-1 vector disrupted by gentle sonication (50 µl), with or without RanQ69L-GTP; binding buffer 50 mM Hepes pH 7.3, 200 mM NaCl, 2 mM Mg(Ac)2, 10 µM GTP; 4°C; silver stain and Western blot with anti-capsid antibody, ImageJ quantification.
Sequence of GST-Tnp3 (Transportin 3), full length (human) (Q9Y5L0 whole entry): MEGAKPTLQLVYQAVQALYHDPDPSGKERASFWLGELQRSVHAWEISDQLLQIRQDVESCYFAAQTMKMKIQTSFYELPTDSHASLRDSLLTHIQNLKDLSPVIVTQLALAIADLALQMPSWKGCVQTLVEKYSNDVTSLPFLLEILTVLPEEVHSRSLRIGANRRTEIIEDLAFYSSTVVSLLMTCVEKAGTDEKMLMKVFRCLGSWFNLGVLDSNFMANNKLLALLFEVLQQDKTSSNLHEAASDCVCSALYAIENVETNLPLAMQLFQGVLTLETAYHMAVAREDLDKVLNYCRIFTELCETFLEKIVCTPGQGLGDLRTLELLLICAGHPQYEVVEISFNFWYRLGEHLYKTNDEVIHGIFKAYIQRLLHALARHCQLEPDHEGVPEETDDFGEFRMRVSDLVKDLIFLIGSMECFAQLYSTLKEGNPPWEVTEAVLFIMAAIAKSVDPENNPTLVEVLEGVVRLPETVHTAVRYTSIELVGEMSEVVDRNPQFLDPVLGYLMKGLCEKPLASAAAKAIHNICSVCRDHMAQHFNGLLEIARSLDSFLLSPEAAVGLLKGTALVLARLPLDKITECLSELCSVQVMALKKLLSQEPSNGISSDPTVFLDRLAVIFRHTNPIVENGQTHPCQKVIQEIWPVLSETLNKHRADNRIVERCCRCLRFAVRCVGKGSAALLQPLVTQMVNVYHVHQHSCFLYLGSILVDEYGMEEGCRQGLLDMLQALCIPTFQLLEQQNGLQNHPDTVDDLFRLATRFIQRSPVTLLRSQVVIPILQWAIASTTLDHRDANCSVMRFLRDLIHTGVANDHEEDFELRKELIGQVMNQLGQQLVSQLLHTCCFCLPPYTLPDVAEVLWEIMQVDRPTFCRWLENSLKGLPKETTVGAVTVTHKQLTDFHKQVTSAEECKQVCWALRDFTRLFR

For experiment [2], the target named is GST-Tnp3 DC825 deletion mutant (human) (UniProt Q9Y5L0). The description is as above.
Sequence of GST-Tnp3 DC825 deletion mutant (human) (Q9Y5L0 1-825, stated change not applied): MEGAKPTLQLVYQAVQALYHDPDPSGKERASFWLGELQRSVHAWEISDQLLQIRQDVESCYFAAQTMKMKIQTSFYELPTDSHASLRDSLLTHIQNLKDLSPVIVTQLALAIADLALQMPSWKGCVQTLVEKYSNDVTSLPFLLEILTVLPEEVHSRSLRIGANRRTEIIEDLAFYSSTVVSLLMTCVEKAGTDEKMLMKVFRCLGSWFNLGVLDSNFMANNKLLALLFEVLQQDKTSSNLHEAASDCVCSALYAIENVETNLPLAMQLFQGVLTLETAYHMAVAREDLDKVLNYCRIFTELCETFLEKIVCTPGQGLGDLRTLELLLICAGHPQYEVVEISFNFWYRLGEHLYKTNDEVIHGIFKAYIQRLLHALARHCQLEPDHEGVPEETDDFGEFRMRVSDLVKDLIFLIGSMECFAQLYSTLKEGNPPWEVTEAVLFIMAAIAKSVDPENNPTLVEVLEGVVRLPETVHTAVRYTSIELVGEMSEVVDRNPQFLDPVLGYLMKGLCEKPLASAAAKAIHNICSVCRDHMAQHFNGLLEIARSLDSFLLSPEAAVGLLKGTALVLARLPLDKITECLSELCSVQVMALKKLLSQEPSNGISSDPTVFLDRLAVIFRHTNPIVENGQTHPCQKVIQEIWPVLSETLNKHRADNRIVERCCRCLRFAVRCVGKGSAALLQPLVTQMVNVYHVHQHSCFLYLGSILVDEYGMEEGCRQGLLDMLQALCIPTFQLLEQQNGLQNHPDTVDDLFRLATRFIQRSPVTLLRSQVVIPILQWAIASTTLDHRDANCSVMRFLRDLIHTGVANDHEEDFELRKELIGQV

Take “HIV-1 capsid protein (CA, p24) of purified HIV-1 vector particles (natural protein)”: the fold increase of binding with RanGTP against without in experiment [1] turned out to be 2.5 fold. In experiment [2], this substance displayed a fold reduction of binding against full-length Tnp3 of 3 fold.
